Measured values: article PMC8325564

Substrate: Nc1nc2c(ncn2[C@@H]2O[C@H](COP(=O)(O)OP(=O)(O)OP(=O)(O)O)[C@@H](O)[C@H]2O)c(=O)[nH]1
Assay: coupled enzymatic assay of AK3 activity
Assay type: biochemical, human
Details: other: GTP as varied substrate, 300 μM AMP, 2 mM MgCl2

B1: human AK3 (Homo sapiens) (protein)
chain: MGASARLLRAVIMGAPGSGKGTVSSRITTHFELKHLSSGDLLRDNMLRGTEIGVLAKAFIDQGKLIPDDVMTRLALHELKNLTQYSWLLDGFPRTLPQAEALDRAYQIDTVINLNVPFEVIKQRLTARWIHPASGRVYNIEFNPPKTVGIDDLTGEPLIQREDDKPETVIKRLKAYEDQTKPVLEYYQKKGVLETFSGTETNKIWPYVYAFLQTKVPQRSQKASVTP
Km: 10 ± 1.5 µM | kcat/Km: 5.7e+06 ± 900000 M⁻¹ s⁻¹
